The values that follow come from article PMC9909335, “Structure-guided design of a potent Clostridioides difficile toxin A inhibitor” (Frontiers in Microbiology, 2023).

Settings in all cases: both partners purified
In assay [1] the target is T1, TcdA-A2 fragment (C-terminal CROPs domain fragment of TcdA, aa 2,556–2,710 of TcdA10463) (Clostridioides difficile; paper: …).
T1 construct: source: recombinant (Greco et al., 2006)
The experiment in a line: SPR. (In general: In SPR one partner is held on a chip, and binding of the other changes the refractive index at the surface.)

Assay [2] concerns the target T1, TcdA-A2 fragment (C-terminal CROPs …). As to the kind of experiment: SEC-MALS.
For assay [3], the target named is T2, Clostridioides difficile toxin A (TcdA), full-length (Clostridioides difficile, strain of …, UniProt P16154).
T2 construct: also called full-length TcdA
As to the kind of experiment: ELISA.

Usually koff stands for a measure of how fast the partners let go of each other. Broadly, the stoichiometry N is the number of molecules, sites or subunits per partner or assembly. The EC50 is the concentration giving half of the maximal effect.

B1: VHH A26 (A26.8) (VHH)
VHH: QVKLEESGGGLVQAGGSLRLSCAASERTFSRYPVAWFRQAPGAEREFVAVISSTGTSTYYADSVKGRFTISRDNAKVTVYLQMNNLKREDTAVYFCAVNSQRTRLQDPNEYDYWGQGTQVTVSS
For the molecule B1, in assay [1], the “T1/2 (SPR-calculated half-life, 0.693/kd)” value is 0.6 min and the koff is 0.025 s⁻¹. For the same molecule, the “stoichiometry N” value in assay [2] is 1 Ab per Ag (1:1). Further, the EC50 in assay [3] was 14.6 nM.

B2: VHH A20 (A20.1) (VHH)
VHH: QVQLVESGGGLAQAGGSLRLSCAASGRTFSMDPMAWFRQPPGKEREFVAAGSSTGRTTYYADSVKGRFTISRDNAKNTVYLQMNSLKPEDTAVYYCAAAPYGANWYRDEYAYWGQGTQVTVSS
Consider B2, for which, in assay [1], the “T1/2 (SPR-calculated half-life, 0.693/kd)” value is 1.8 min and the koff was 0.0075 s⁻¹. Also, the “stoichiometry N” value in assay [2] was 1 Ab per Ag (1:1). Besides, a half-maximal response in assay [3] (EC50) required 0.194 ± 0.013 nM.
